Our source for the Kd values is publication PMC11408749, “Molecular mechanisms for DNA methylation defects induced by ICF syndrome‐linked mutations in DNMT3B”.

Common to all, as to test: fluorescence polarization; FP: 10 nM DNA, 20 mM Tris-HCl pH 8.0, 50 mM NaCl, 5% glycerol, 1 mM TCEP, 30 min at 25 C
A general note: Fluorescence polarisation rises when a labelled molecule tumbles more slowly, as on binding a larger partner.

For series [1], the target named is DNMT3BΔ214 WT;DNMT3L MTase-like domain (human;human, UniProt Q9UBC3;Q9UJW3 215-853;179-379, |). The settings on record: protein: recombinant;recombinant; tags: tag (if any) removed by TEV;6xHis removed by TEV; chain copies: 2;2; label: 3'-FAM.
Series [2] concerns the target DNMT3BΔ570 R823G;DNMT3L MTase-like domain (human;human, UniProt Q9UBC3;Q9UJW3 571-853;179-379, R823G|). The settings on record: protein: recombinant;recombinant; tags: 6xHis-SUMO removed by TEV;6xHis removed by TEV; chain copies: 2;2; label: 3'-FAM.
Series [3] deals with DNMT3BΔ214 V818M;DNMT3L MTase-like domain (human;human, UniProt Q9UBC3;Q9UJW3 215-853;179-379, V818M|). The settings on record: protein: recombinant;recombinant; tags: tag (if any) removed by TEV;6xHis removed by TEV; chain copies: 2;2; label: 3'-FAM.
Series [4] addresses DNMT3BΔ214 R823G;DNMT3L MTase-like domain (human;human, UniProt Q9UBC3;Q9UJW3 215-853;179-379, R823G|). The settings on record: protein: recombinant;recombinant; tags: tag (if any) removed by TEV;6xHis removed by TEV; chain copies: 2;2; label: 3'-FAM.
Series [5] has as its target DNMT3BΔ214 D817G;DNMT3L MTase-like domain (human;human, UniProt Q9UBC3;Q9UJW3 215-853;179-379, D817G|). Conditions: protein: recombinant;recombinant; tags: tag (if any) removed by TEV;6xHis removed by TEV; chain copies: 2;2; label: 3'-FAM.
Series [6] deals with DNMT3BΔ570 WT;DNMT3L MTase-like domain (human;human, UniProt Q9UBC3;Q9UJW3 571-853;179-379, |). The settings on record: protein: recombinant;recombinant; tags: 6xHis-SUMO removed by TEV;6xHis removed by TEV; chain copies: 2;2; label: 3'-FAM.
Series [7] concerns the target DNMT3BΔ214 H814R;DNMT3L MTase-like domain (human;human, UniProt Q9UBC3;Q9UJW3 215-853;179-379, H814R|). Conditions: protein: recombinant;recombinant; tags: tag (if any) removed by TEV;6xHis removed by TEV; chain copies: 2;2; label: 3'-FAM.

As a reminder, the Kd is the equilibrium constant for the complex coming apart.

DNMT3BΔ214 V818M;DNMT3L MTase-like domain, sequence (Q9UJW3 179-379, chain 2 of 2, other chains not shown): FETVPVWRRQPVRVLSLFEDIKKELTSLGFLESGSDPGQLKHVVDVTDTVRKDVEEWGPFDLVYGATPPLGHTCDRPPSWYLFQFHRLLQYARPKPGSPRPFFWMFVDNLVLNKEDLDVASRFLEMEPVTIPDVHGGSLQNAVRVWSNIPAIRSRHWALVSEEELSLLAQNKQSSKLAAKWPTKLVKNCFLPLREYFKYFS
DNMT3BΔ214 D817G;DNMT3L MTase-like domain, sequence (Q9UJW3 179-379, chain 2 of 2, other chains not shown): as above
DNMT3BΔ570 R823G;DNMT3L MTase-like domain, sequence (Q9UJW3 179-379, chain 2 of 2, other chains not shown): as above
DNMT3BΔ214 H814R;DNMT3L MTase-like domain, sequence (Q9UJW3 179-379, chain 2 of 2, other chains not shown): as above
DNMT3BΔ214 WT;DNMT3L MTase-like domain, sequence (Q9UJW3 179-379, stated change not applied, chain 2 of 2, other chains not shown): as the sequence (Q9UJW3 179-379, chain 2 of 2, other chains not shown) above
DNMT3BΔ570 WT;DNMT3L MTase-like domain, sequence (Q9UJW3 179-379, stated change not applied, chain 2 of 2, other chains not shown): as the sequence (Q9UJW3 179-379, chain 2 of 2, other chains not shown) above
DNMT3BΔ214 R823G;DNMT3L MTase-like domain, sequence (Q9UJW3 179-379, chain 2 of 2, other chains not shown): as above

B1: 49-bp FAM dsDNA (dsDNA)
DNA 1: AAAACGAAAAAAAAAAAAAAAAAAAAAAAAAAAAAAAAAAAAAAAAAAA
DNA 2: TTTTTTTTTTTTTTTTTTTTTTTTTTTTTTTTTTTTTTTTTTTCGTTTT
As to B1, the Kd in series [1] came to 2.73 ± 0.26 µM; in series [2], 0.171 ± 0.008 µM; in series [3], 7.21 ± 0.78 µM; in series [4], 5.39 ± 0.58 µM; in series [5], 58 ± 6.15 µM; in series [6], 0.07 ± 0.007 µM. In addition, in series [7], the dissociation constant (Kd) came to 299 ± 55.8 µM.
